In IntAct's records for PubMed 31515488:

B1: Centrosomal protein POC5 (Homo sapiens), Q8NA72 (parent)
chain: MSSDEEKYSLPVVQNDSSRGSSVSSNLQEEYEELLHYAIVTPNIEPCASQSSHPKGELVPDVRISTIHDILHSQGNNSEVRETAIEVGKGCDFHISSHSKTDESSPVLSPRKPSHPVMDFFSSHLLADSSSPATNSSHTDAHEILVSDFLVSDENLQKMENVLDLWSSGLKTNIISELSKWRLNFIDWHRMEMRKEKEKHAAHLKQLCNQINELKELQKTFEISIGRKDEVISSLSHAIGKQKEKIELMRTFFHWRIGHVRARQDVYEGKLADQYYQRTLLKKVWKVWRSVVQKQWKDVVERACQARAEEVCIQISNDYEAKVAMLSGALENAKAEIQRMQHEKEHFEDSMKKAFMRGVCALNLEAMTIFQNRNDAGIDSTNNKKEEYGPGVQGKEHSAHLDPSAPPMPLPVTSPLLPSPPAAVGGASATAVPSAASMTSTRAASASSVHVPVSALGAGSAATAASEEMYVPRVVTSAQQKAGRTITARITGRCDFASKNRISSSLAIMGVSPPMSSVVVEKHHPVTVQTIPQATAAKYPRTIHPESSTSASRSLGTRSAHTQSLTSVHSIKVVD
partner: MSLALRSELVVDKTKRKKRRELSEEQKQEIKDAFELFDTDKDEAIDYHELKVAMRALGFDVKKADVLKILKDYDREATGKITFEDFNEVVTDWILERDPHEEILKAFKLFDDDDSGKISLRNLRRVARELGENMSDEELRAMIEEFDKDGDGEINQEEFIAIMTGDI
B2: Lymphotoxin-alpha (Homo sapiens), P01374 (parent)
chain: MTPPERLFLPRVCGTTLHLLLLGLLLVLLPGAQGLPGVGLTPSAAQTARQHPKMHLAHSTLKPAAHLIGDPSKQNSLLWRANTDRAFLQDGFSLSNNSLLVPTSGIYFVYSQVVFSGKAYSPKATSSPLYLAHEVQLFSSQYPFHVPLLSSQKMVYPGLQEPWLHSMYHGAAFQLTQGDQLSTHTDGIPHLVLSPSTVFFGAFAL
partner: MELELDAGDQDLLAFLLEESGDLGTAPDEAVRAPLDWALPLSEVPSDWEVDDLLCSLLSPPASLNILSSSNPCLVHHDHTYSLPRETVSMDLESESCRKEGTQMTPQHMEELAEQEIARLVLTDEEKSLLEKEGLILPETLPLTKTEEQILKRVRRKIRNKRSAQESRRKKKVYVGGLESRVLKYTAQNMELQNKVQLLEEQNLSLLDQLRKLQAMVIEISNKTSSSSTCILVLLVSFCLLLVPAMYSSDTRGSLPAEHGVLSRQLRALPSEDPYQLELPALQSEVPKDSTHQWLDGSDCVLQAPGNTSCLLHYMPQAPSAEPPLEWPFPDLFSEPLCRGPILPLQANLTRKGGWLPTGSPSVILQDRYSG
B3: Glutathione S-transferase Mu 3 (Homo sapiens), P21266 (parent)
chain: MSCESSMVLGYWDIRGLAHAIRLLLEFTDTSYEEKRYTCGEAPDYDRSQWLDVKFKLDLDFPNLPYLLDGKNKITQSNAILRYIARKHNMCGETEEEKIRVDIIENQVMDFRTQLIRLCYSSDHEKLKPQYLEELPGQLKQFSMFLGKFSWFAGEKLTFVDFLTYDILDQNRIFDPKCLDEFPNLKAFMCRFEALEKIAAYLQSDQFCKMPINNKMAQWGNKPVC
partner: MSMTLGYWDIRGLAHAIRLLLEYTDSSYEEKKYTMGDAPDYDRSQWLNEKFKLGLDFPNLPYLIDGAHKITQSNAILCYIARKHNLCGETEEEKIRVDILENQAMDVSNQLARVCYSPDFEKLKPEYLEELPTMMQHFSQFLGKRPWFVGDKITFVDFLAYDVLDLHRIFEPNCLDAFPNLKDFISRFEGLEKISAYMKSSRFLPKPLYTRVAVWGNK
B4: Ribose-phosphate pyrophosphokinase 1 (Homo sapiens), P60891-1 (parent)
chain: MPNIKIFSGSSHQDLSQKIADRLGLELGKVVTKKFSNQETCVEIGESVRGEDVYIVQSGCGEINDNLMELLIMINACKIASASRVTAVIPCFPYARQDKKDKSRAPISAKLVANMLSVAGADHIITMDLHASQIQGFFDIPVDNLYAEPAVLKWIRENISEWRNCTIVSPDAGGAKRVTSIADRLNVDFALIHKERKKANEVDRMVLVGDVKDRVAILVDDMADTCGTICHAADKLLSAGATRVYAILTHGIFSGPAISRINNACFEAVVVTNTIPQEDKMKHCSKIQVIDISMILAEAIRRTHNGESVSYLFSHVPL
B5: Probable thioesterase PNKD (Homo sapiens), Q8N490 (parent)
chain: MAAVVAATALKGRGARNARVLRGILAGATANKASHNRTRALQSHSSPEGKEEPEPLSPELEYIPRKRGKNPMKAVGLAWYSLYTRTWLGYLFYRQQLRRARNRYPKGHSKTQPRLFNGVKVLPIPVLSDNYSYLIIDTQAQLAVAVDPSDPRAVQASIEKEGVTLVAILCTHKHWDHSGGNRDLSRRHRDCRVYGSPQDGIPYLTHPLCHQDVVSVGRLQIRALATPGHTQGHLVYLLDGEPYKGPSCLFSGDLLFLSGCGRTFEGNAETMLSSLDTVLGLGDDTLLWPGHEYAEENLGFAGVVEPENLARERKMQWVQRQRLERKGTCPSTLGEERSYNPFLRTHCLALQEALGPGPGPTGDDDYSRAQLLEELRRLKDMHKSK
partner: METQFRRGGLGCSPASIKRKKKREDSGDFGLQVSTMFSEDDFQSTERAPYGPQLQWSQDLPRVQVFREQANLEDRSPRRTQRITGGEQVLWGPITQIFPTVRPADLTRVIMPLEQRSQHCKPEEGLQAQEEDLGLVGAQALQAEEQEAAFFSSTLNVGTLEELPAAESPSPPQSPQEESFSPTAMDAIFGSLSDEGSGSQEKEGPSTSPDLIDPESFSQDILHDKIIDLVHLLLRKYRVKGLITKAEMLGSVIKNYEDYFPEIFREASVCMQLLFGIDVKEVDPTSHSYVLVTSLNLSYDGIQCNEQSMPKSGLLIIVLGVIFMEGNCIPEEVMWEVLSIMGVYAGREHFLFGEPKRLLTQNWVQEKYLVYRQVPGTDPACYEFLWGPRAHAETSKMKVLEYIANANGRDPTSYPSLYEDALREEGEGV
B6: IQ motif and ubiquitin-like domain-containing protein (Homo sapiens), Q8NA54 (parent)
chain: MSNQQEKYEAQNIVNSTEESDDAFDTVTIPVPSEEPQESDQTEEHESGIEQFSESHAIHVEEQSDQSFSSLEPDNEQLMEEVISPRQVSYTPQHHEKQYAMQRPNDDSLAFLDKIKSVKESLQESVEDSLATVKVVLIPVGQEIVIPFKVDTILKYLKDHFSHLLGIPHSVLQIRYSGKILKNNETLVQHGVKPQEIVQVEIFSTNPDLYPVRRIDGLTDVSQIITVTVQTGLDQYQQVPVEIVKSDFHKPFLGGFRHKVTGVEYHNAGTQTVPKRIPERLSIFCRDTQTVFQKKNLQQTTNTTSTQMTNIGVYVSNMTDKLVTPGKYFSAAEYHAQRLKAVIVIQTYYRQWHAKIFVENLRRQKSLRLEWETQQELRKIREKEEWIKLDYHRRHNPKTNEDFEFLYNALEFWRQEELTRINQSFTGAERKAALCELLEKETQIIASIGRHRYIAYMANQEAAIQAFLDKCSAPKIWRTPNGKTIEMDTQFTIRARELQNIYKCIMLKNISQDERLDVLLTLKHTVKEHECKLTQEILELIDREVDLMMRGVKHHNLEGLRKRIATLFFHYIKTPLFNPEVAKYLKVPQDPLKFYKKIYFCHSCQLYLPSTEFSVSSTSRRIYRCRNCINLQNEAQKRESFLKYKCLLQQLYYTEADYEDDSKIAFLMQLQDIQYLTENIWASQSVLSACDNLSDLVMVRWNKSLEWSPWNCILLTKDEAAAHLKLTSIEEGYERSFIHKIKHKHILAKNYFSQVPVLASFILDDGEIDEIRWKYHSDTTPKIIESQRPPH
partner: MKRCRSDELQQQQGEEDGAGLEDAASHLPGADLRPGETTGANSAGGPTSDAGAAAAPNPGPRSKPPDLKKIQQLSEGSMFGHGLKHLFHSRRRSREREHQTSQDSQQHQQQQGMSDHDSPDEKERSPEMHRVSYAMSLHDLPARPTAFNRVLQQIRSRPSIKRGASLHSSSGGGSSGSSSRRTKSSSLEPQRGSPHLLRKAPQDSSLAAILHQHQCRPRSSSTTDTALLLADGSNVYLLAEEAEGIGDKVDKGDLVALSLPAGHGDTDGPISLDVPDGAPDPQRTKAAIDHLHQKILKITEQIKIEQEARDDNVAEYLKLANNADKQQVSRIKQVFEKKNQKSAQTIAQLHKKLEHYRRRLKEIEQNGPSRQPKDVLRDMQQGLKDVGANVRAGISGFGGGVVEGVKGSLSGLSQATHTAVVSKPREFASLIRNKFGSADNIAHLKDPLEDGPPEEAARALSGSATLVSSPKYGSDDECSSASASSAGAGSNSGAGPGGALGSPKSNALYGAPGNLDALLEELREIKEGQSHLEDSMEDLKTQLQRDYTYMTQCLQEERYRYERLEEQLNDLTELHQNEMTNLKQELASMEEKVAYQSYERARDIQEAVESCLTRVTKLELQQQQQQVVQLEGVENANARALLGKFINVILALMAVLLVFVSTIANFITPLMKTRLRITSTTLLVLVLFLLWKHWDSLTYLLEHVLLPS

Variants of: B1
Conditions: with cetn3_human CETN3, O15182

Variant | effect of a mutation on the interaction
H36R | with no effect

Variants of: B2
Conditions: with creb3_human CREB3, O43889

Variant | effect of a mutation on the interaction
T60N | with no effect

Variants of: B3
Conditions: with gstm4_human GSTM4, Q03013

Variant | effect of a mutation on the interaction
R86H | disrupting interaction strength
L23P | disrupting interaction strength

Variants of: B4
Conditions: with gors2_human GORASP2, Q9H8Y8

Variant | effect of a mutation on the interaction
D203H | with no effect

Variants of: B4
Conditions: with prps2_human PRPS2, P11908

Variant | effect of a mutation on the interaction
D203H | disrupting interaction strength

Variants of: B4
Conditions: with gors2_human GORASP2, Q9H8Y8
Remark: another data set of the same source

Variant | effect of a mutation on the interaction
E43D | with no effect
D183H | with no effect

Variants of: B4
Conditions: with prps2_human PRPS2, P11908
Remark: another data set of the same source

Variant | effect of a mutation on the interaction
E43D | disrupting interaction strength
D183H | disrupting interaction strength

Variants of: B5
Conditions: with magab_human MAGEA11, P43364

Variant | effect of a mutation on the interaction
R377Q | with no effect

Variants of: B6
Conditions: with tmcc2_human TMCC2, O75069

Variant | effect of a mutation on the interaction
V126M | with no effect
